Numbered stars: 1 amine (or outer) side, 2 acyl side, 3 side chain; on linkers, the order of the positions; unused ones are H or OH. Bridge positions count the residues as written; N and C are the ends. Side chains are listed from the residue outwards. Ends that are not written are not given here. * marks the point of attachment. C20 diacid = O=C(O)CCCCCCCCCCCCCCCCCCC(=O)*; γGlu = O=C(O)[C@H](CCC(=O)[*:2])N[*:1]; AEEA = NCCOCCOCC(=O)O
B1: N^ε1-[(4S)-4-carboxy-4-(19-carboxynonadecanoylamino)butanoyl]-[Glu14,Arg17,Pro21,Pro27,Pro34,Glu35]-h-amylin (peptide)
peptide: K([γGlu-C20 diacid])CNTATCATQRLAEFLRHSSPNFGAIPSSTNVGPETY-NH2
modifications: disulfide 2-7; N-terminus assumed
SMILES: CC[C@H](C)[C@H](NC(=O)[C@H](C)NC(=O)CNC(=O)[C@H](Cc1ccccc1)NC(=O)[C@H](CC(N)=O)NC(=O)[C@@H]1CCCN1C(=O)[C@H](CO)NC(=O)[C@H](CO)NC(=O)[C@H](Cc1c[nH]cn1)NC(=O)[C@H](CCCNC(=N)N)NC(=O)[C@H](CC(C)C)NC(=O)[C@H](Cc1ccccc1)NC(=O)[C@H](CCC(=O)O)NC(=O)[C@H](C)NC(=O)[C@H](CC(C)C)NC(=O)[C@H](CCCNC(=N)N)NC(=O)[C@H](CCC(N)=O)NC(=O)[C@@H](NC(=O)[C@H](C)NC(=O)[C@@H]1CSSC[C@H](NC(=O)[C@@H](N)CCCCNC(=O)CC[C@H](NC(=O)CCCCCCCCCCCCCCCCCCC(=O)O)C(=O)O)C(=O)N[C@@H](CC(N)=O)C(=O)N[C@@H]([C@@H](C)O)C(=O)N[C@@H](C)C(=O)N[C@@H]([C@@H](C)O)C(=O)N1)[C@@H](C)O)C(=O)N1CCC[C@H]1C(=O)N[C@@H](CO)C(=O)N[C@@H](CO)C(=O)N[C@H](C(=O)N[C@@H](CC(N)=O)C(=O)N[C@H](C(=O)NCC(=O)N1CCC[C@H]1C(=O)N[C@@H](CCC(=O)O)C(=O)N[C@H](C(=O)N[C@@H](Cc1ccc(O)cc1)C(N)=O)[C@@H](C)O)C(C)C)[C@@H](C)O
notes: Synthetic acylated analogue of human amylin
B2: N^ε1-[2-[2-[2-[[(4S)-4-carboxy-4-(19-carboxynonadecanoylamino)butanoyl]amino]ethoxy]ethoxy]acetyl]-[His14,Arg17,Pro21,Pro27]-h-amylin (peptide)
peptide: K([AEEA-γGlu-C20 diacid])CNTATCATQRLAHFLRHSSPNFGAIPSSTNVGSNTY-NH2
modifications: disulfide 2-7; N-terminus assumed
SMILES: CC[C@H](C)[C@H](NC(=O)[C@H](C)NC(=O)CNC(=O)[C@H](Cc1ccccc1)NC(=O)[C@H](CC(N)=O)NC(=O)[C@@H]1CCCN1C(=O)[C@H](CO)NC(=O)[C@H](CO)NC(=O)[C@H](Cc1c[nH]cn1)NC(=O)[C@H](CCCNC(=N)N)NC(=O)[C@H](CC(C)C)NC(=O)[C@H](Cc1ccccc1)NC(=O)[C@H](Cc1c[nH]cn1)NC(=O)[C@H](C)NC(=O)[C@H](CC(C)C)NC(=O)[C@H](CCCNC(=N)N)NC(=O)[C@H](CCC(N)=O)NC(=O)[C@@H](NC(=O)[C@H](C)NC(=O)[C@@H]1CSSC[C@H](NC(=O)[C@@H](N)CCCCNC(=O)COCCOCCNC(=O)CC[C@H](NC(=O)CCCCCCCCCCCCCCCCCCC(=O)O)C(=O)O)C(=O)N[C@@H](CC(N)=O)C(=O)N[C@@H]([C@@H](C)O)C(=O)N[C@@H](C)C(=O)N[C@@H]([C@@H](C)O)C(=O)N1)[C@@H](C)O)C(=O)N1CCC[C@H]1C(=O)N[C@@H](CO)C(=O)N[C@@H](CO)C(=O)N[C@H](C(=O)N[C@@H](CC(N)=O)C(=O)N[C@H](C(=O)NCC(=O)N[C@@H](CO)C(=O)N[C@@H](CC(N)=O)C(=O)N[C@H](C(=O)N[C@@H](Cc1ccc(O)cc1)C(N)=O)[C@@H](C)O)C(C)C)[C@@H](C)O
notes: Analogue of human amylin; disulfide and C-terminal amide as told for h-amylin; also called compound 69
B3: N^ε1-[2-[2-[2-(19-carboxynonadecanoylamino)ethoxy]ethoxy]acetyl]-[Arg17,Pro21,Pro27,His34]-h-amylin (peptide)
peptide: K([AEEA-C20 diacid])CNTATCATQRLANFLRHSSPNFGAIPSSTNVGHNTY-NH2
modifications: disulfide 2-7; N-terminus assumed
SMILES: CC[C@H](C)[C@H](NC(=O)[C@H](C)NC(=O)CNC(=O)[C@H](Cc1ccccc1)NC(=O)[C@H](CC(N)=O)NC(=O)[C@@H]1CCCN1C(=O)[C@H](CO)NC(=O)[C@H](CO)NC(=O)[C@H](Cc1c[nH]cn1)NC(=O)[C@H](CCCNC(=N)N)NC(=O)[C@H](CC(C)C)NC(=O)[C@H](Cc1ccccc1)NC(=O)[C@H](CC(N)=O)NC(=O)[C@H](C)NC(=O)[C@H](CC(C)C)NC(=O)[C@H](CCCNC(=N)N)NC(=O)[C@H](CCC(N)=O)NC(=O)[C@@H](NC(=O)[C@H](C)NC(=O)[C@@H]1CSSC[C@H](NC(=O)[C@@H](N)CCCCNC(=O)COCCOCCNC(=O)CCCCCCCCCCCCCCCCCCC(=O)O)C(=O)N[C@@H](CC(N)=O)C(=O)N[C@@H]([C@@H](C)O)C(=O)N[C@@H](C)C(=O)N[C@@H]([C@@H](C)O)C(=O)N1)[C@@H](C)O)C(=O)N1CCC[C@H]1C(=O)N[C@@H](CO)C(=O)N[C@@H](CO)C(=O)N[C@H](C(=O)N[C@@H](CC(N)=O)C(=O)N[C@H](C(=O)NCC(=O)N[C@@H](Cc1c[nH]cn1)C(=O)N[C@@H](CC(N)=O)C(=O)N[C@H](C(=O)N[C@@H](Cc1ccc(O)cc1)C(N)=O)[C@@H](C)O)C(C)C)[C@@H](C)O
notes: Analogue of human amylin; disulfide and C-terminal amide as told for h-amylin; also called compound 91
B4: N^ε1-[2-[2-[2-[[(4S)-4-carboxy-4-(19-carboxynonadecanoylamino)butanoyl]amino]ethoxy]ethoxy]acetyl]-[Ala14,Arg17,Pro21,Pro27,Pro31]-h-amylin (peptide)
peptide: K([AEEA-γGlu-C20 diacid])CNTATCATQRLAAFLRHSSPNFGAIPSSTPVGSNTY-NH2
modifications: disulfide 2-7; N-terminus assumed
SMILES: CC[C@H](C)[C@H](NC(=O)[C@H](C)NC(=O)CNC(=O)[C@H](Cc1ccccc1)NC(=O)[C@H](CC(N)=O)NC(=O)[C@@H]1CCCN1C(=O)[C@H](CO)NC(=O)[C@H](CO)NC(=O)[C@H](Cc1c[nH]cn1)NC(=O)[C@H](CCCNC(=N)N)NC(=O)[C@H](CC(C)C)NC(=O)[C@H](Cc1ccccc1)NC(=O)[C@H](C)NC(=O)[C@H](C)NC(=O)[C@H](CC(C)C)NC(=O)[C@H](CCCNC(=N)N)NC(=O)[C@H](CCC(N)=O)NC(=O)[C@@H](NC(=O)[C@H](C)NC(=O)[C@@H]1CSSC[C@H](NC(=O)[C@@H](N)CCCCNC(=O)COCCOCCNC(=O)CC[C@H](NC(=O)CCCCCCCCCCCCCCCCCCC(=O)O)C(=O)O)C(=O)N[C@@H](CC(N)=O)C(=O)N[C@@H]([C@@H](C)O)C(=O)N[C@@H](C)C(=O)N[C@@H]([C@@H](C)O)C(=O)N1)[C@@H](C)O)C(=O)N1CCC[C@H]1C(=O)N[C@@H](CO)C(=O)N[C@@H](CO)C(=O)N[C@H](C(=O)N1CCC[C@H]1C(=O)N[C@H](C(=O)NCC(=O)N[C@@H](CO)C(=O)N[C@@H](CC(N)=O)C(=O)N[C@H](C(=O)N[C@@H](Cc1ccc(O)cc1)C(N)=O)[C@@H](C)O)C(C)C)[C@@H](C)O
notes: Analogue of human amylin; disulfide and C-terminal amide as told for h-amylin; also called compound 72

Key:
rat calcitonin receptor [1] = biological target: T1, rat calcitonin receptor (rat, UniProt P32214 25-516); test: ratio of IC50 on rat calcitonin receptor to IC50 on rat amylin receptor (reference m40)
T1 construct: whole, on cells; Membranes of transiently transfected BHK tk'ts 13 cells; also called rCTR; rat calcitonin (a) receptor
T1 sequence (looked up): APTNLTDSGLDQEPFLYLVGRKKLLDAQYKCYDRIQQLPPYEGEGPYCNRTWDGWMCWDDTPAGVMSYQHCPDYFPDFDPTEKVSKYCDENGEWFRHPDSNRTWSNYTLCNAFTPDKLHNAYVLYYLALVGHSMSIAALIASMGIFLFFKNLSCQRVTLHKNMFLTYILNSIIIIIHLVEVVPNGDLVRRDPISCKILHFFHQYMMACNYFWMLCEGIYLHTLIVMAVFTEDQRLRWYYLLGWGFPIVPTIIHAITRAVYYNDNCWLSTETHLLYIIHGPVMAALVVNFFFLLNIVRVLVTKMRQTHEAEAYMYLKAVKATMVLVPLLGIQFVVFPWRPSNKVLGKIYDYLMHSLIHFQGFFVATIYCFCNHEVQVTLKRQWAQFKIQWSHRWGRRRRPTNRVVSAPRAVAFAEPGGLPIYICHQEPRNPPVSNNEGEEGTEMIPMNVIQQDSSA

[2] = biological target: T2, human calcitonin receptor (human, UniProt P30988 25-474); test: ratio of IC50 on human calcitonin receptor to IC50 on human amylin receptor (reference m42), SPA competition
T2 construct: whole, on cells; Membranes of stably transfected cells; also called hCTR; hCT
T2 sequence (looked up): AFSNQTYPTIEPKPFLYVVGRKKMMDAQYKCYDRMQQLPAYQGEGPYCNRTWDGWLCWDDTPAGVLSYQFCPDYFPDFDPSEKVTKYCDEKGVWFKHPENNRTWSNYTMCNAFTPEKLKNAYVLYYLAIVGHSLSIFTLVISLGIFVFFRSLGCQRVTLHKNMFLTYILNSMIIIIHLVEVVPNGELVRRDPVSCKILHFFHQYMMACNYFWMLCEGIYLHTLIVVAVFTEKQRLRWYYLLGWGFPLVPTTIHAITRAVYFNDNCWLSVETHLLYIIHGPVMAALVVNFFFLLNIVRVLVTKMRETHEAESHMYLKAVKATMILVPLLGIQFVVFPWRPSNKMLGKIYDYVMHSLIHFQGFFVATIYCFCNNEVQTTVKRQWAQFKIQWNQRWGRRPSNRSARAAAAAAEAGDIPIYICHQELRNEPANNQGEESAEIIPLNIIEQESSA
How it was run: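 Competition binding by SPA uses membrane preparations (35 ng/μL final) in pH 7.4 Hepes buffer with 1 mM CaCl2 and 5 mM MgCl₂. Incubation lasts 120 min at 25° C, and IC₅₀ comes from one-site fitting.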

rat calcitonin receptor [3] = biological target: T1, rat calcitonin receptor; test: SPA competition with 125I-calcitonin on membranes of BHK tk'ts 13 cells with rat calcitonin receptor (Assay VIII)
[4] = biological target: T3, rat amylin receptor (rat calcitonin receptor + rat RAMP 3) (rat, UniProt P32214 25-516; Q9JJ73 23-147); test: SPA competition with 125I-rat amylin on membranes of BHK tk'ts 13 cells with rat calcitonin receptor + rat RAMP3 (Assay VI)
T3 construct: whole, on cells; Membranes of transiently transfected BHK tk'ts 13 cells; also called rAmylin-R; rat amylin 3(a) receptor
T3 sequence (looked up) 1: T1 sequence (looked up)
T3 sequence (looked up) 2: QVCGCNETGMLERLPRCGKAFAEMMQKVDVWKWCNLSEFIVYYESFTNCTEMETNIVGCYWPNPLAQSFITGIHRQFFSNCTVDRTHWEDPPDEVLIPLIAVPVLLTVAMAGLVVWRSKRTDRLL

rat calcitonin receptor [5] = biological target: T4, rat calcitonin receptor (rat, UniProt P32214 25-516); test: SPA competition with 125I-calcitonin, membranes with rat calcitonin receptor (Assay VIII)
T4 construct: whole, on cells; Used as membranes prepared from the transfected cells; also called rCTR; rCT
T4 sequence (looked up): T1 sequence (looked up)

rat calcitonin receptor [6] = biological target: T4, rat calcitonin receptor; test: ratio of binding IC50 at rat calcitonin receptor to IC50 at rat amylin receptor (reference)
[7] = biological target: T5, human calcitonin receptor (human, UniProt P30988 25-474); test: ratio of binding IC50 at human calcitonin receptor to IC50 at human amylin receptor (reference)
T5 construct: whole, on cells; Used as membranes prepared from the transfected cells; also called hCTR; hCT
T5 sequence (looked up): T2 sequence (looked up)
Description: The resulting pellet was resuspended, homogenized and centrifuged (20.000 rpm, 15 min) in a buffer containing 20 mM Na-HEPES and 0.1 mM EDTA (pH 7.4, buffer 2). The resulting pellet was resuspended in buffer 2 and protein concentration was measured (BCA protein Assay, Pierce). The homogenate was kept cold during the whole procedure. The membranes were kept at −80° C. until use. The assay was performed in a 384 well Optiplate (PerkinElmer) in a total volume of 40 ul. Membranes were mixed with SPA beads. Final concentration of membranes 35 ng/μL final and SPA beads was 0.05 mg/well. Test-compounds were dissolved in DMSO and further diluted in assay buffer (50 mM Hepes, pH 7.4, 1 mM CaCl2, 5 mM MgCl₂, 0.1% OA and 0.02% Tween20). […] The final mixture was incubated with shaking at 400 rpm for 120 min at 25° C. prior to centrifugation (1500 rpm, 10 min). Samples were analyzed on TopCounter™ (Packard). The IC₅₀ was calculated using (one site binding competition analysis) GraphPad Prism5 as a measure of receptor affinity.
Membranes were prepared in the following way; the cells were rinsed with PBS and incubated with Versene for approximately 5 min before harvesting. The cells were flushed with PBS and the cell-suspension was centrifuged for 5 min at 1000 rpm. Cells were homogenized (Ultrathurrax) in a buffer containing 20 mM Na-HEPES and 10 mM EDTA (pH 7.4) and centrifuged at 20.000 rpm for 15 min. The resulting pellet was resuspended, homogenized and centrifuged (20.000 rpm, 15 min) in a buffer containing 20 mM Na-HEPES and 0.1 mM EDTA (pH 7.4, buffer 2). The resulting pellet was resuspended in buffer 2 and protein concentration was measured (BCA protein Assay, Pierce). The homogenate was kept cold during the whole procedure. The membranes were kept at −80° C. until use. Assay was performed in a 384 well Optiplate (PerkinElmer) in a total volume of 40 ul. Membranes were mixed with SPA beads.

Row | Ratio rCT/rAmylin binding (rat calcitonin receptor [1]) | Ratio hCT/hAmylin binding [2] | IC50 (rat calcitonin receptor [3]) | IC50 [4] | IC50 (rat calcitonin receptor [5]) | Ratio rCT/rAmylin binding (rat calcitonin receptor [6]) | Ratio hCT/hAmylin binding [7] | Binder
1 | 63.2 | 13.3 | 10.4 nM | 0.164 nM |  |  |  | B1
2 |  |  |  |  | 46.8 nM | 104 | 65.3 | B2
3 |  |  |  |  | 29.4 nM | 76.3 | 101 | B3
4 |  |  |  |  | 221 nM | 259 | 247 | B4

— patent publication US20140087995A1 (published 2014)
